B1: B7-DC-Ig-APC: B7-DC-Ig conjugated with allophycocyanin (APC) (conjugate)
chain: LFTVTAPKEVYTVDVGSSVSLECDFDRRECTELEGIRASLQKVENDTSLQSERATLLEEQLPLGKALFHIPSVQVRDSGQYRCLVICGAAWDYKYLTVKVKASYMRIDTRILEVPGTGEVQLTCQARGYPLAEVSWQNVSVPANTSHIRTPEGLYQVTSVLRLKPQPSRNFSCMFWNAHMKELTSAIIDPLSRMEPKVPRTWEPRGPTIKPCPPCKCPAPNLLGGPSVFIFPPKIKDVLMISLSPIVTCVVVDVSEDDPDVQISWFVNNVEVHTAQTQTHREDYNSTLRVVSALPIQHQDWMSGKEFKCKVNNKDLPAPIERTISKPKGSVRAPQVYVLPPPEEEMTKKQVTLTCMVTDFMPEDIYVEWTNNGKTELNYKNTEPVLDSDGSYFMYSKLRVEKKNWVERNSYSCSVVHEGLHNHHTTKSFSRTPGK
B2: B7-DC-Ig: homodimer having 2 copies of SEQ ID NO: 10 linked by a disulfide linkage; mouse B7-DC ECD fused to Fc of mouse IgG2a (protein)
chain: LFTVTAPKEVYTVDVGSSVSLECDFDRRECTELEGIRASLQKVENDTSLQSERATLLEEQLPLGKALFHIPSVQVRDSGQYRCLVICGAAWDYKYLTVKVKASYMRIDTRILEVPGTGEVQLTCQARGYPLAEVSWQNVSVPANTSHIRTPEGLYQVTSVLRLKPQPSRNFSCMFWNAHMKELTSAIIDPLSRMEPKVPRTWEPRGPTIKPCPPCKCPAPNLLGGPSVFIFPPKIKDVLMISLSPIVTCVVVDVSEDDPDVQISWFVNNVEVHTAQTQTHREDYNSTLRVVSALPIQHQDWMSGKEFKCKVNNKDLPAPIERTISKPKGSVRAPQVYVLPPPEEEMTKKQVTLTCMVTDFMPEDIYVEWTNNGKTELNYKNTEPVLDSDGSYFMYSKLRVEKKNWVERNSYSCSVVHEGLHNHHTTKSFSRTPGK
modifications: homodimer via disulfide; Murine B7-DC-Ig fusion protein without signal sequence
notes: mouse B7-DC ECD fused to Fc of mouse IgG2a

How the values were obtained:
SP-1 cells = assay: Metastatic prostate tumor model, survival; type: in vivo, B10.D2 mice; settings: CTX 50 mg/kg Day 5, 12, 19; B7-DC-Ig 5 mg/kg Day 6, 13, 20; SP-1 cells intravenously
Procedure: SP-1 cells were isolated from mouse lungs that were metastasized from TRAMP prostate tumor cell injection. B10.D2 mice were first injected with 3×10^5 SP-1 cells via tail vein injection. On Day 5, 12 and 19, mice were injected with 50 mg/kg of CTX where was indicated. […] Here, “NT” refers to “not treated”.
The CTX mice received 3 doses of CTX, 50 mg/kg, on Day 5, 12 and 19.

[1] = tested on: CT26 colorectal tumor cells; assay: CT26 subcutaneous established tumor model, tumor eradication; type: in vivo, Balb/C mice
Procedure: Mouse colorectal tumor cell line, CT26, was obtained from ATCC. A master cell bank at Passage 4 was generated following ATCC guidelines. […] One vial of tumor cells was thawed from the cryopreserved stocks and grown for two passages prior to inoculation.
CT26 cells were split at 1:5 dilution with 30 mL complete medium (RPMI+10% FBS, 2 mM L-Glu, and 1×P/S) for two days culture or at 1:10 dilution with 30 ml complete medium for 3 days culture.
CT26 cells were harvested by aspirating medium, rinsing the flask with 5 mL PBS, adding 5 mL trypsin, incubating at 37° C. for 2 min, and then neutralizing with 10 mL complete medium. After centrifuge at 600×g (˜1000 rpm) for 5 min, media was aspirated and the cell pellet was resuspended by pipetting with 10 ml plain RPMI. This wash step was repeated for three times.
Cell number and viability of the inoculated cells were analyzed by trypan blue dye staining with proper dilution (e.g. 1:5 dilution, 10 μL cells+40 μL trypan blue) and confirmed by NOVA cell count during the last wash step.
CT26 cells were diluted to 6.7×10^5 cells/mL for initial inoculation with plain RPMI and stored on ice. Typically each mouse was inoculated with 150 μL (1×10^5 cells).
CTX solution was reconstituted by 1×PBS to 4 mg/mL. […]
The same dose was given 2 time a week for 4 weeks, total 8 doses. […] Tumor volume was calculated as following: Tumor volume=π(Dshort)^2×(Dlong)/6=˜0.52×(Dshort)^2×(Dlong)
Mice were euthanized and taken off the study if the tumor volume reached 2000 mm^3 or if there were skin ulcers and infections at the tumor inoculation site.
On day 11 post tumor challenge, mice received a single dose of cyclophosphamide (100 mg/kg) and started treatment with anti-PD-1 antibody (250 ug, Clone G4, Hirano F. et al., 2005 Cancer Research) which was administered 3 times per week for four weeks.
On day 11 post tumor challenge, mice received 100 mg/kg of cyclophosphamide. Anti-CTLA4 (an anti-mouse CTLA4 from hamster hybridoma—ATCC deposit UC10-4F10-11) treatment was started 1 day later, on day 12. Mice were treated with 100 ug of anti-CTLA4, 2 doses per week, for 4 weeks.

AB1-HA tumor = settings: CTX treatment at Day 9; van der Most et al. 2009; cited from earlier work
[2] = tested on: Treg and CD4+ T cells expressing high PD-1; assay: T cell analysis in CT26 tumor-bearing mice (Treg, PD-1+/CD4+ T cells); type: in vivo, Balb/C mice
Procedure: On Day 9, mice were injected with 100 mg/kg of CTX, IP. […] Two naïve mice and 4 mice from other groups were removed from the study on Day 11 (2 days post CTX) and Day 16 (7 days post CTX) for T cell analysis. […] Mice implanted with tumor cells intended to have more PD-1+/CD4+ T cells in the draining LN compared with naïve mice.

[3] = tested on: parent CHO cells that do not express PD-1; assay: Flow cytometry binding to parent CHO cells; settings: various concentrations
Procedure: (§1) Binding was analyzed by flow cytometry.

[4] = target: T1, CHO cell line constitutively expressing PD-1 (Homo sapiens, UniProt Q15116); assay: Flow cytometry binding to CHO cells expressing PD-1; settings: various concentrations
T1 construct: expressed in transfected cells; host or cells: CHO
T1 sequence (Q15116 25-288): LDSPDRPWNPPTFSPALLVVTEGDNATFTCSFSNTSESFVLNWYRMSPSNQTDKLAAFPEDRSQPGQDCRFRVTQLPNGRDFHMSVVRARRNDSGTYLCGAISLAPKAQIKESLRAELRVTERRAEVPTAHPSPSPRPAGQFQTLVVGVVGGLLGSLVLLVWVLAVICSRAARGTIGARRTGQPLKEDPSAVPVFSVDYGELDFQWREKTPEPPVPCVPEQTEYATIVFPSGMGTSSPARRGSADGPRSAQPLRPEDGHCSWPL
Procedure: as §1

PD-1 = target: T2, PD-1 (Homo sapiens, UniProt Q15116); assay: Competition with labeled B7-H1-Ig for binding to PD-1 on CHO cells; settings: unlabeled competitor at various concentrations, then B7-H1-Ig-APC; MFI
T2 construct: expressed in transfected cells; host or cells: CHO
T2 sequence (Q15116 25-288): as above
Excerpt: B7-H1-Ig was first conjugated with allophycocyanin (APC).

Molecule	mice survived on Day 100 (SP-1 cells)	outcome of mice, CTX alone group ([1]; CTX 100 mg/kg day 10)	cure rate (AB1-HA tumor)	Treg in the spleen vs vehicle-injected tumor-bearing mice ([2]; Day 11, 2 days post CTX 100 mg/kg IP)	binding to untransfected CHO cells (median fluorescence intensity) [3]	binding to CHO.PD-1 cells (median fluorescence intensity) [4]	competition with B7-H1 for binding to PD-1 (PD-1)	tumor eradication ([1]; cyclophosphamide 100 mg/kg day 9, 30 μg B7-DC-Ig from Day 10, 2 doses per week, 8 doses)	tumor eradication ([1]; cyclophosphamide 100 mg/kg day 9, 100 μg B7-DC-Ig from Day 10, 2 doses per week, 8 doses)	mice that eradicated the tumors ([1]; cyclophosphamide 100 mg/kg day 9, 300 μg B7-DC-Ig from Day 10, 2 doses per week, 8 doses)	CD4+ T cells expressing high PD-1 ([2]; Day 16, 7 days post CTX and 6 days post B7-DC-Ig 100 ug, draining LN)
O=P1(N(CCCl)CCCl)NCCCO1 (stereo not drawn) [CTX, cyclophosphamide, reference compound]	17%	died as a result of tumor growth or were euthanized	75%	significantly lower	–	–	–	–	–	–	–
B1	–	–	–	–	not untransfected CHO cells	binds to CHO.PD-1 cells	–	–	–	–	–
B2	17%	–	–	–	–	–	competes with B7-H1 for binding to PD-1	10%	40%	70%	significantly lowered the CD4+ T cells expressing high PD-1

Reference: patent publication US8609089B2, “Compositions of PD-1 antagonists and methods of use” (Amplimmune, Inc., priority 2008, dated 2013)
